According to patent publication US20090005253A1, “Double Hybrid System Based on Gene Silencing by Transcriptional Interference” (AVENTIS PHARMA S.A., priority 2004, published 2009):

Target: fusion protein DBD-AppCt (GAL4 DBD fused to amino acids 650 to 695 of App) (Saccharomyces cerevisiae) (UniProt P04386)
Assay: cell-based or functional assay

- 3-AT concentration at which differences in cell growth are detected: > 15 mM
- growth of strain yRB49 (UI) plated on solid medium with 3-AT: 1 mM
B1: fusion protein AD-Fe65 (GAL4 activation domain fused to amino acids 152 to 708 of Fe65) (protein)
chain: MDKAELIPEPPKKKRKVELGTAANFNQSGNIADSSLSFTFTNSSNGPNLITTQTNSQALSQPIASSNVHDNFMNNEITASKIDDGNNSKPLSPGWTDQTAYNAFGITTGMFNTTTMDDVYNYLFDDEDTPPNPKKEIEFKAAGEAEEEEEDDDDEEEEEDLSSPPGLPEPLESVEAPPRPQALTDGPREHSKSASLLFGMRNSAASDEDSSWATLSQGSPSYGSPEDTDSFWNPNAFETDSDLPAGWMRVQDTSGTYYWHIPTGTTQWEPPGRASPSQGSSPQEESQLTWTGFAHGEGFEDGEFWKDEPSDEAPMELGLKEPEEGTLTFPAQSLSPEPLPQEEEKLPPRNTNPGIKCFAVRSLGWVEMTEEELAPGRSSVAVNNCIRQLSYHKNNLHDPMSGGWGEGKDLLLQLEDETLKLVEPQSQALLHAQPIISIRVWGVGRDSGRDFAYVARDKLTQMLKCHVFRCEAPAKNIATSLHEICSKIMAERRNARCLVNGLSLDHSKLVDVPFQVEFPAPKNELVQKFQVYYLGNVPVAKPVGVDVINGALESVLSSSSREQWTPSHVSVAPATLTILHQQTEAVLGECRVRFLSFLAVGRDVHTFAFIMAAGPASFCCHMFWCEPNAASLSEAVQAACMLRYQKCLDARSQASTSCLPAPPAESVARRVGWTVRRGVQSLWGSLKPKRLGAHTP
